One data set concerns the target L7Ae (UniProt O29494). The note with it: RNA microarray, 5 nM L7Ae.
In another data set the target is T1, Lin28A (UniProt Q9H9Z2).
T1 sequence: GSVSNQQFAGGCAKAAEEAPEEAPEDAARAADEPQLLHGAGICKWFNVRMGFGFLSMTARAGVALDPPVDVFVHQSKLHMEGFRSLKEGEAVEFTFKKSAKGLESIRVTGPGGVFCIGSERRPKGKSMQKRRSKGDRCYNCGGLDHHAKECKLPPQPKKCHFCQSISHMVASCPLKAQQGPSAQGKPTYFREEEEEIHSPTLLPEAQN
The experiment in a line: pulldown. Particulars: TALON beads, 4 C.

A further data set addresses U1A (Homo sapiens) (UniProt P09012). The data set is described as follows: pulldown. Particulars: TALON beads, 4 C.

L7Ae, sequence (O29494 whole entry): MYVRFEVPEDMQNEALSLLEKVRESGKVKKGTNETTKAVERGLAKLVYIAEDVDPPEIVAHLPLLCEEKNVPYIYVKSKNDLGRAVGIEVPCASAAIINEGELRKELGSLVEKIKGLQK
U1A (Homo sapiens), sequence (P09012 2-282): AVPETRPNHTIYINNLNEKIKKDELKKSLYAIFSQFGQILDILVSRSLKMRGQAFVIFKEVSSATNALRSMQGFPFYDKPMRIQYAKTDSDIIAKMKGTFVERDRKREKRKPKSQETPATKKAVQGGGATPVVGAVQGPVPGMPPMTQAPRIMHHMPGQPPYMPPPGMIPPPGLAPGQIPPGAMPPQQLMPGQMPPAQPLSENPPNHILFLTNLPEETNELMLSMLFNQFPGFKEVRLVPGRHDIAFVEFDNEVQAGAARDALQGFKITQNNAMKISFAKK

For the substance hsa-mir-1-2 loop, in the data set with L7Ae, the binding signal (log2 Cy3-Cy5+20) was 11.3. With hsa-mir-16-2 loop, the binding signal (log2 Cy3-Cy5+20) in the data set with L7Ae is 11.5. As for hsa-mir-34a loop, the binding signal (log2 Cy3-Cy5+20) with L7Ae was found to be 11.3.

In the case of hsa-mir-98 loop, in the data set with Lin28A, the binding signal (Cy5 intensity) stood at 6.41. As to hsa-mir-204 loop, the binding signal (log2 Cy3-Cy5+20) with L7Ae was determined as 11.7. In turn, hsa-mir-363 loop returned a binding signal (log2 Cy3-Cy5+20) with L7Ae of 12.5.

hsa-mir-378c loop gave a binding signal (Cy5 intensity) with U1A (Homo sapiens) of 8.37. On the same count and under the same terms, as for hsa-mir-412 loop, the figure is 8.95; as for hsa-mir-422a loop, 8.78. With hsa-mir-493 loop, in the data set with U1A (Homo sapiens), the binding signal (Cy5 intensity) came to 8.41. Turning to hsa-mir-598 loop, the binding signal (Cy5 intensity) with Lin28A came out at 6.47. Regarding hsa-mir-637 loop, the binding signal (Cy5 intensity) with U1A (Homo sapiens) stood at 8.4. In turn, hsa-mir-638 loop yielded a binding signal (Cy5 intensity) in the data set with Lin28A of 6.27. Turning to hsa-mir-658 loop, the binding signal (Cy5 intensity) with U1A (Homo sapiens) amounted to 8.27. For the substance hsa-mir-940 loop, in the data set with Lin28A, the binding signal (Cy5 intensity) stood at 6.33. hsa-mir-1233-1 loop yielded a binding signal (Cy5 intensity) with Lin28A of 6.55. For hsa-mir-1233-2 loop, the binding signal (Cy5 intensity) with Lin28A turned out to be 6.43. In the case of hsa-mir-1273h loop, the binding signal (Cy5 intensity) in the data set with U1A (Homo sapiens) was 8.2. For hsa-mir-1302-6 loop, the binding signal (Cy5 intensity) in the data set with U1A (Homo sapiens) came to 8.55. On the same count and under the same terms, with hsa-mir-2682 loop the figure was 8.27; with hsa-mir-3661 loop, 9.05. hsa-mir-4296 loop returned a binding signal (Cy5 intensity) with Lin28A of 6.29. On to hsa-mir-4315-2 loop, for which the binding signal (Cy5 intensity) with U1A (Homo sapiens) was 8.28. Take hsa-mir-4453 loop: in the data set with Lin28A, the binding signal (Cy5 intensity) turned out to be 6.54.

hsa-mir-4479 loop came in with a binding signal (log2 Cy3-Cy5+20) in the data set with L7Ae of 11.3. Consider hsa-mir-4499 loop, for which the binding signal (Cy5 intensity) in the data set with U1A (Homo sapiens) amounted to 8.28. In turn, hsa-mir-4524b loop returned a binding signal (Cy5 intensity) in the data set with Lin28A of 6.33. In the case of hsa-mir-4723 loop, the binding signal (Cy5 intensity) with U1A (Homo sapiens) was 8.48.

Take hsa-mir-4730 loop: in the data set with Lin28A, the binding signal (Cy5 intensity) was 6.28.

For the substance hsa-mir-5004 loop, the binding signal (Cy5 intensity) in the data set with Lin28A is 6.38.

The substance hsa-mir-5196 loop returned a binding signal (Cy5 intensity) with U1A (Homo sapiens) of 8.67. Take hsa-mir-6758 loop: the binding signal (Cy5 intensity) in the data set with Lin28A stood at 6.35. With hsa-mir-6773 loop, the binding signal (log2 Cy3-Cy5+20) with L7Ae is 11.3. In the data set with Lin28A, hsa-mir-6775 loop returned a binding signal (Cy5 intensity) of 6.44. In the data set with U1A (Homo sapiens), hsa-mir-6796 loop registered a binding signal (Cy5 intensity) of 8.72.

Regarding hsa-mir-6807 loop, the binding signal (Cy5 intensity) with U1A (Homo sapiens) came out at 8.28. hsa-mir-6834 loop yielded a binding signal (log2 Cy3-Cy5+20) with L7Ae of 11.5. As to hsa-mir-6839 loop, the binding signal (Cy5 intensity) with Lin28A amounted to 6.39. hsa-mir-6845 loop registered a binding signal (Cy5 intensity) with U1A (Homo sapiens) of 9.06.

In turn, hsa-mir-6884 loop yielded a binding signal (Cy5 intensity) in the data set with Lin28A of 6.37.

hsa-mir-7848 loop came in with a binding signal (Cy5 intensity) in the data set with U1A (Homo sapiens) of 8.69. In the data set with L7Ae, mmu-mir-466p loop displayed a binding signal (log2 Cy3-Cy5+20) of 13.3.

mmu-mir-6338 loop gave a binding signal (log2 Cy3-Cy5+20) in the data set with L7Ae of 11.6.

mmu-mir-6995 loop: in the data set with L7Ae, the binding signal (log2 Cy3-Cy5+20) amounted to 12.2. mmu-mir-7061 loop came in with a binding signal (log2 Cy3-Cy5+20) with L7Ae of 11.8. In the data set with L7Ae, mmu-mir-7220 loop yielded a binding signal (log2 Cy3-Cy5+20) of 11.5.
